According to patent US20140256820A1, “THERAPEUTIC AGENT FOR BLOOD-BRAIN BARRIER DISRUPTION SYNDROME” (FUKUOKA UNIVERSITY, priority 2010, published 2014):

Tested on: rat brain endothelial cells: RBECs
Assay type: cell-based
Description: Thus, a “t-PA-induced BBB dysfunction model” was prepared by the loading of ischemia and t-PA onto an in vitro BBB model. […] The resulting sample was left for 48 hours under 95% N2/5% CO2 (ischemia) conditions. Then, the permeability test was conducted.

## t-PA: tissue plasminogen activator, a thrombolytic drug for cerebral infarction; t-PA injection (Activacin; Kyowa Hakko Kirin Co., Ltd.)
  permeability of albumin (Evans blue-albumin: EBA) on loading of t-PA under ischemic conditions: increased the permeability
  permeability of fluorescein sodium on loading of t-PA under ischemic conditions: increased the permeability
